Results reported in PMC8372624.

Molecular target: fluorescently labeled non-covalent analog of peptide 5 with a non-nucleophilic acetate group on position 133 (UniProt P46937)
Assay: fluorescence polarisation

Sequence of UniProt P46937 (P46937 whole entry, looked up, tested part not stated): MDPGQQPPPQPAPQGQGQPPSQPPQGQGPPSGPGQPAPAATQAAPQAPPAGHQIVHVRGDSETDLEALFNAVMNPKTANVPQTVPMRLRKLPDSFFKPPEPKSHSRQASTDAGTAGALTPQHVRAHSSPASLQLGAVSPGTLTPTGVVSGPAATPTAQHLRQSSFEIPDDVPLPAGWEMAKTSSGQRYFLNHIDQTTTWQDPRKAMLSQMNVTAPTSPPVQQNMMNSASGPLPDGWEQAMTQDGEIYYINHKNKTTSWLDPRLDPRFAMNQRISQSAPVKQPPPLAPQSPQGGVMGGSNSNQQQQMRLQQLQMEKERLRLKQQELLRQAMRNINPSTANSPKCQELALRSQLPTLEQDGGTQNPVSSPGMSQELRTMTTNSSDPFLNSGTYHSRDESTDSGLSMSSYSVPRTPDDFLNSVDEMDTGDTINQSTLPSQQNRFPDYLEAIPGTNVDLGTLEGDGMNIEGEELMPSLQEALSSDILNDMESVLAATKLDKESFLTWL

- Kd: 106 nM
B1: recombinant full-length 14-3-3σ (1–248) (natural protein)
chain: MERASLIQKAKLAEQAERYEDMAAFMKGAVEKGEELSCEERNLLSVAYKNVVGGQRAAWRVLSSIEQKSNEEGSEEKGPEVREYREKVETELQGVCDTVLGLLDSHLIKEAGDAESRVFYLKMKGDYYRYLAEVATGDDKKRIIDSARSAYQEAMDISKKEMPPTNPIRLGLALNFSVFHYEIANSPEEAISLAKTTFDEAMADLHTLSEDSYKDSTLIMQLLRDNLTLWTADNAGEEGGEAPQEPQS
